Assay [1] addresses T1, human FSH Gonal-F (recombinant human FSH, Merck Serono) (human, UniProt P01215 25-116; P01225 19-129). The assay can be described thus: cell-based or functional assay.
The target in assay [2] is T2, ovine FSH (oFSH) (ovine, UniProt P01218 25-120; P01227 20-129). The experiment in a line: cell-based or functional assay.
Assay [3] has as its target T3, α-subunit of ovine FSH (ovine, UniProt P01218 25-120). The experiment in a line: ELISA, subunit adsorbed on the plate, antibody titrated; (A/B)x100 relative to oFSH. As for the experimental part:
(§1) The specificity of the antibodies and of the scFv thereof was studied by the ELISA technique. Each hormone evaluated was prepared at the concentration of 10 μg/ml in a 0.1M sodium carbonate buffer, pH 9.6, and distributed in a proportion of 100 μl per well on an ELISA plate. The adsorption time was 18 hours at +4° C. After five washes, the wells were treated with 100 μl of PBS supplemented with 0.1% Tween and 1% BSA for 45 minutes at 37° C., then each antibody or scFv was distributed in a proportion of 100 μl/well and incubated for one hour at 37° C. On each hormone evaluated, the antibodies and the scFvs were distributed at various concentrations according to a range of 10 to 250 μg/ml for the antibodies and of 10 to 150 or 200 μg/ml for the scFvs.
(§2) After five washes, a secondary antibody coupled to peroxidase (HRP) was distributed in a proportion of 100 μl/well and incubated for one hour at 37° C. […] For the scFvs, an anti-His Tag HRP (Ref. R93125 Life Technologies, France) was used. […] After the reaction had been stopped with 1M H₂SO₄ (50 μl/well), the strength of the colored reaction (optical density) was measured using a spectrophotometer for ELISA plates.
(§3) The percentage of cross reaction was calculated conventionally by comparing the dose-response curves obtained with the concentration range of the antibody or of the scFv.
A general note: In an ELISA, binding on a coated surface is turned into a signal by an enzyme label.

In assay [4] the target is T4, β-subunit of ovine FSH (ovine, UniProt P01227 20-129).
T4 construct: mature; Isolated subunit adsorbed on the ELISA plate; also called β-s.u. oFSH; β-oFSH
Described as above. As for the experimental part:
as §1, §2, §3

In assay [5] the target is T5, β-subunit of human FSH (human, UniProt P01225 19-129).
T5 construct: mature; Isolated subunit adsorbed on the ELISA plate; also called β-s.u. hFSH
The assay is described as above. As for the experimental part: as §1, §2, §3

The target in assay [6] is T1, human FSH Gonal-F (recombinant human …). The experiment in a line: ELISA, hormone adsorbed on the plate, antibody titrated; (A/B)x100 relative to oFSH. As for the experimental part: as §1, §2, §3
Assay [7] has as its target T6, human FSH Puregon (recombinant human FSH, Merck Schering-Plough) (human, UniProt P01215 25-116; P01225 19-129).
T6 construct: mature; Recombinant pharmaceutical preparation; also called hFSH (Puregon); hFSH Puregon
The assay is described as above. As for the experimental part:
as §1, §2, §3

In assay [8] the target is T7, human FSH Fostimon (purified FSH extracted from urine, Laboratoire Genévrier) (human, UniProt P01215 25-116; P01225 19-129).
T7 construct: mature; Extracted pharmaceutical preparation; also called hFSH (Fostimon); hFSH Fostimon
Described as above. As for the experimental part:
as §1, §2, §3

The target in assay [9] is T8, porcine FSH (pFSH) (porcine, UniProt P01219 25-120; P01228 21-129). Described as above. As for the experimental part:
as §1, §2, §3

Assay [10] deals with T1, human FSH Gonal-F (recombinant human …). The assay can be described thus: ELISA saturation binding, one site-specific binding fit in GraphPad Prism (estimate). As for the experimental part: as §1
Assay [11] deals with T6, human FSH Puregon (recombinant human …). Described as above. As for the experimental part:
as §1

Assay [12] deals with T7, human FSH Fostimon (purified FSH …). The description is as above. As for the experimental part: as §1
In assay [13] the target is T9, ovine LH (oLH) (ovine, UniProt P01218 25-120; P01231 21-141). The assay is described as above. As for the experimental part: as §1
Assay [14] concerns the target T10, porcine LH (pLH) (porcine, UniProt P01219 25-120; P01232 21-141). The assay is described as above. As for the experimental part: as §1
The target in assay [15] is T11, bovine LH (bLH) (bovine, UniProt P01217 25-120; P04651 21-141). Described as above. As for the experimental part: as §1
In assay [16] the target is T12, equine chorionic gonadotropin (eCG) (equine, UniProt P01220 25-120; P08751 21-169).
T12 construct: mature; Alpha/beta dimer
The description is as above. As for the experimental part: as §1

In assay [17] the target is T13, hCG Chorulon (human chorionic gonadotropin extracted from urine, MSD) (human, UniProt P01215 25-116; P0DN86 21-165).
T13 construct: mature; Extracted veterinary preparation
The assay is described as above. As for the experimental part: as §1

In assay [18] the target is T14, hCG Endo 5000 (purified human chorionic gonadotropin, Schering-Plough) (human, UniProt P01215 25-116; P0DN86 21-165).
T14 construct: mature; Extracted pharmaceutical preparation
The assay is described as above. As for the experimental part:
as §1

Assay [19] deals with T2, ovine FSH (oFSH). The description is as above. As for the experimental part:
as §1

The target in assay [20] is T8, porcine FSH (pFSH). The description is as above. As for the experimental part: as §1
Assay [21] addresses T1, human FSH Gonal-F (recombinant human …). The assay can be described thus: ELISA, hormone adsorbed on the plate, scFv titrated, anti-His HRP; (A/B)x100 relative to oFSH. As for the experimental part:
as §1, §2, §3

Assay [22] deals with T6, human FSH Puregon (recombinant human …). Described as above. As for the experimental part: as §1, §2, §3
Assay [23] addresses T7, human FSH Fostimon (purified FSH …). The assay is described as above. As for the experimental part:
as §1, §2, §3

The target in assay [24] is T9, ovine LH (oLH). Described as above. As for the experimental part:
as §1, §2, §3

The target of assay [25] is T10, porcine LH (pLH). The assay is described as above. As for the experimental part:
as §1, §2, §3

Assay [26] addresses T11, bovine LH (bLH). The description is as above. As for the experimental part: as §1, §2, §3
In assay [27] the target is T8, porcine FSH (pFSH). The assay is described as above. As for the experimental part:
as §1, §2, §3

Assay [28] deals with T2, ovine FSH (oFSH). The experiment in a line: ELISA saturation binding, one site-specific binding fit in GraphPad Prism (estimate); differs from Table 25.
Assay [29] concerns the target T3, α-subunit of ovine FSH. The experiment in a line: ELISA, subunit adsorbed on the plate, antibody titrated; (A/B)x100 relative to oFSH. This is another data set of the same source.
For assay [30], the target named is T4, β-subunit of ovine FSH. Described as above. The source holds these as a separate data set.
The target of assay [31] is T5, β-subunit of human FSH. Described as above. The source holds these as a separate data set.

Read-outs that look alike come from different tables or passages of the source.

T1 sequence (P01215 25-116, chain 1 of 2): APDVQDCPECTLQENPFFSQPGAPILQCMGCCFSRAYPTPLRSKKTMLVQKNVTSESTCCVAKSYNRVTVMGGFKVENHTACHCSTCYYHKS
T1 sequence (P01225 19-129, chain 2 of 2): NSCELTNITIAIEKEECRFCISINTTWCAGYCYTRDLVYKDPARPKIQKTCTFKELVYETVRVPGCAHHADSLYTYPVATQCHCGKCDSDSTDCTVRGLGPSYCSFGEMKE
T7 sequence (P01215 25-116, chain 1 of 2): as the sequence (P01215 25-116, chain 1 of 2) above
T7 sequence (P01225 19-129, chain 2 of 2): as the sequence (P01225 19-129, chain 2 of 2) above
T6 sequence (P01215 25-116, chain 1 of 2): as the sequence (P01215 25-116, chain 1 of 2) above
T6 sequence (P01225 19-129, chain 2 of 2): as the sequence (P01225 19-129, chain 2 of 2) above
T5 sequence (P01225 19-129): as the sequence (P01225 19-129, chain 2 of 2) above
T12 sequence (P01220 25-120, chain 1 of 2): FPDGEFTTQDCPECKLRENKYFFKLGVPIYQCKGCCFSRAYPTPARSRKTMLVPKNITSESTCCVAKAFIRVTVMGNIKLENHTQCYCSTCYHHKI
T12 sequence (P08751 21-169, chain 2 of 2): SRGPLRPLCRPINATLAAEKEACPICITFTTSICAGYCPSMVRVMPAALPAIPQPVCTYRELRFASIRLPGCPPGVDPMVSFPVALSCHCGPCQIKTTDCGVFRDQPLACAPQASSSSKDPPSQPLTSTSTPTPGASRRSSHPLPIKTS
T13 sequence (P01215 25-116, chain 1 of 2, other chains not shown): as the sequence (P01215 25-116, chain 1 of 2) above
T14 sequence (P01215 25-116, chain 1 of 2, other chains not shown): as the sequence (P01215 25-116, chain 1 of 2) above

B1: CH10 monoclonal antibody (antibody, IgM, V domains shown)
VH: EVQLVESGGGLVQPKGSLKLSCAASGFTFNTYAMNWVRQAPGKGLEWVARIRSKSNNYATYYADSVKDRFTISRDDSQSMLYLQMNNLKTEDTAMYYCVRQDYYGSSYFDYWGQGTTLTVSS
VL: DIVMTQSPATLSVTPGDRVSLSCRASQSISDYLHWYQQKSHESPRLLIKYASQSISGIPSRFSGSGSGSDFTLSINSVEPEDVGVYYCQNGHSFPYTFGGGTKLEIK
notes: also called CH10 antibody; CH10 ligand
Turning to B1, the “EC50 of the hFSH/CH10 complex, cAMP (GloSensor), HEK 293 cells with the human FSH receptor” value in assay [1] came out at 0.317 nM. Besides, in the assay with ovine FSH (oFSH) [2], the “amplification of cAMP secretion, bovine granulosa cells” value was 5.5 fold. For the same molecule, the cross reaction in the assay with α-subunit of ovine FSH [3] was determined as 43%; in the assay with β-subunit of ovine FSH [4], 88%; in the assay with β-subunit of human FSH [5], 40%; in [6], 50%; in [7] it was 71%; in assay [8], 100%. This molecule also displayed a cross reaction with porcine FSH (pFSH) [9] of 24%.

B2: CH10 scFv (scFv)
scFv: QVQLQQSGGGLVQPKGSLKLSCAASGFTFNTYAMNWVRQAPGKGLEWVARIRSKSNNYATYYADSVKDRFTISRDDSQSMLYLQMNNLKTEDTAMYYCVRQDYYGSSYFDYWGQGTTLTVSSGGGGSGGGGSGGGGSDIQMTQTPATLSVTPGDRVSLSCRASQSISDYLHWYQQKSHESPRLLIKYASQSISGIPSRFSGSGSGSDFTLSINSVEPEDVGVYYCQNGHSFPYTFGGGTKLEIKHHHHHH
notes: VH-(Gly4Ser)3-VL-His6, made in the E. coli periplasm; also called scFv derived from the CH10 antibody
As usually defined, the Kd is the concentration at which binding is half-saturated. B2: the Kd in assay [10] is 1820 nM; in assay [11] it was 11500 nM; in assay [12], 1590 nM; with ovine LH (oLH) [13], 1550 nM; in the assay with porcine LH (pLH) [14], 2470 nM; with bovine LH (bLH) [15], 1940 nM. Also, the Kd in assay [16] is 1970 nM; in assay [17] it was 1470 nM; in [18], 2090 nM; with ovine FSH (oFSH) [19] it was 2850 nM; with porcine FSH (pFSH) [20], 5220 nM; with ovine FSH (oFSH) [28], 7510 nM. The cross reaction in assay [21] is 32%; in assay [22], 67%; in [23], 30%; with ovine LH (oLH) [24], 68%; in the assay with porcine LH (pLH) [25], 63%; with bovine LH (bLH) [26] it was 52%. In addition, the cross reaction in the assay with porcine FSH (pFSH) [27] stood at 175%.

B3: CA5 monoclonal antibody (antibody, IgG2a, V domains shown)
VH: EVKLVESGGGLVQPGGSLRLSCATSGFTFSDFYMEWVRQPPGKRLEWIAASRNKAKDYTTEYSASVKGRFIVSRDTSQSILYLQMNALRAEDTAIYFCARDARFAYWGQGTLVTVSA
VL: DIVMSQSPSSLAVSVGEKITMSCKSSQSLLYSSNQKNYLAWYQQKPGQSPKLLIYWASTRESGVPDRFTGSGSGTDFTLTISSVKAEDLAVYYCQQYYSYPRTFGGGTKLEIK
notes: also called CA5 antibody; CA5 ligand
For B3, the “EC50 of the hFSH/CA5 complex, cAMP (GloSensor), HEK 293 cells with the human FSH receptor” value in assay [1] came out at 0.136 nM. Also, the “EC50 of the oFSH/CA5 complex, cAMP (GloSensor), HEK 293 cells with the human FSH receptor” value in the assay with ovine FSH (oFSH) [2] was 0.283 nM. In addition, in the assay with ovine FSH (oFSH) [2], the “amplification of cAMP secretion, bovine granulosa cells” value amounted to 1.3 fold. Also, the cross reaction in the assay with α-subunit of ovine FSH [29] was found to be 6%; with β-subunit of ovine FSH [30], 80%; in the assay with β-subunit of human FSH [31], 50%; in [6] it was 128%; in assay [7], 70%; in assay [8], 76%. Moreover, the cross reaction with porcine FSH (pFSH) [9] is 134%.
